Measured values as given in patent US20130336893A1 (Sanofi, published 2013).
*1 amine or outer side, *2 acyl side, *3 side chain or, on linkers, in order; H or OH if unused. Where no end group is shown, it is not given here. Side-chain parts run from the residue outwards. [ ]: non-standard residue; d: D form. The star is where a group is joined. Desaminohistidyl = O=C(CCc1c[nH]cn1)*; Ser(Me) = COC[C@H](N[*:1])C(=O)[*:2]; Palmitoyl = CCCCCCCCCCCCCCCC(=O)*; NMeQ = CN[C@@H](CCC(N)=O)C(=O)O; GABA = NCCCC(=O)O

Assays:
human GLP-1 receptor = human GLP-1 receptor (human, UniProt P43220 24-463); assay: cell-based or functional assay
human glucagon receptor = human glucagon receptor (human, UniProt P47871 26-477); assay: cell-based or functional assay
human glucagon receptor, sequence (P47871 26-477): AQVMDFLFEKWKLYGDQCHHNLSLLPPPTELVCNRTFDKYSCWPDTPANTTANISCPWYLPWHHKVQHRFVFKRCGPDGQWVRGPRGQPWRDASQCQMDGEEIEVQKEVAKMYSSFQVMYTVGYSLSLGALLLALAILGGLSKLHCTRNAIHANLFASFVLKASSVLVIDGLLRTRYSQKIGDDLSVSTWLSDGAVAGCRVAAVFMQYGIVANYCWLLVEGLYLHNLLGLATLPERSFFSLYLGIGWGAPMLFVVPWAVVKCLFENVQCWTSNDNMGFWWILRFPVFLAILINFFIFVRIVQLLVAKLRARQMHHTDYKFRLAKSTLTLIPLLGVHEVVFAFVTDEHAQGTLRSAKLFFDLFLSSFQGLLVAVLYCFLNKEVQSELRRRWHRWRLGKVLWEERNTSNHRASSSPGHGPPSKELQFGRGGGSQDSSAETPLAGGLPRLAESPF

HSQGTFTSDLSKQMDSRAAQLFIEWLKNGGPSSGAPPPS-NH2 [SEQ ID NO: (22)]
EC50 hGLP-1R (cAMP formation) (human GLP-1 receptor): 0.0008 nM
EC50 hGlucagonR (cAMP formation) (human glucagon receptor): 0.127 nM

HSQGTFTSDLSKQMDSRRAQDFIEWLKNGGPSSGAPPPK(Palmitoyl)-NH2 [SEQ ID NO: (21)]
EC50 hGLP-1R (cAMP formation) (human GLP-1 receptor): 0.0782 nM
EC50 hGlucagonR (cAMP formation) (human glucagon receptor): 0.547 nM

B1: SEQ ID NO: (125) (peptide)
peptide: H[dS]QGTFTSDLSKQMESRRAQDFIEWLKSGGPSSGAPPPSK([GABA-Palmitoyl])-NH2
modifications: N-terminus assumed
SMILES: CCCCCCCCCCCCCCCC(=O)NCCCC(=O)NCCCC[C@H](NC(=O)[C@H](CO)NC(=O)[C@@H]1CCCN1C(=O)[C@@H]1CCCN1C(=O)[C@@H]1CCCN1C(=O)[C@H](C)NC(=O)CNC(=O)[C@H](CO)NC(=O)[C@H](CO)NC(=O)[C@@H]1CCCN1C(=O)CNC(=O)CNC(=O)[C@H](CO)NC(=O)[C@H](CCCCN)NC(=O)[C@H](CC(C)C)NC(=O)[C@H](Cc1c[nH]c2ccccc12)NC(=O)[C@H](CCC(=O)O)NC(=O)[C@@H](NC(=O)[C@H](Cc1ccccc1)NC(=O)[C@H](CC(=O)O)NC(=O)[C@H](CCC(N)=O)NC(=O)[C@H](C)NC(=O)[C@H](CCCNC(=N)N)NC(=O)[C@H](CCCNC(=N)N)NC(=O)[C@H](CO)NC(=O)[C@H](CCC(=O)O)NC(=O)[C@H](CCSC)NC(=O)[C@H](CCC(N)=O)NC(=O)[C@H](CCCCN)NC(=O)[C@H](CO)NC(=O)[C@H](CC(C)C)NC(=O)[C@H](CC(=O)O)NC(=O)[C@H](CO)NC(=O)[C@@H](NC(=O)[C@H](Cc1ccccc1)NC(=O)[C@@H](NC(=O)CNC(=O)[C@H](CCC(N)=O)NC(=O)[C@@H](CO)NC(=O)[C@@H](N)Cc1c[nH]cn1)[C@@H](C)O)[C@@H](C)O)[C@@H](C)CC)C(N)=O
EC50 hGLP-1R (cAMP formation) (human GLP-1 receptor): 0.0108 nM
EC50 hGlucagonR (cAMP formation) (human glucagon receptor): 0.0171 nM

HSQGTFTSDLSKQMDSRRAQDFIEWLKNGGPSSGAPPPS-NH2 [SEQ ID NO: (9)]
EC50 hGLP-1R (cAMP formation) (human GLP-1 receptor): 0.0222 nM
EC50 hGlucagonR (cAMP formation) (human glucagon receptor): 0.0264 nM

B2: SEQ ID NO: (25) (peptide)
peptide: HS[NMeQ]GTFTSDLSKQMDSRRAQDFIEWLKNGGPSSGAPPPS-NH2
modifications: N-terminus assumed
SMILES: CC[C@H](C)[C@H](NC(=O)[C@H](Cc1ccccc1)NC(=O)[C@H](CC(=O)O)NC(=O)[C@H](CCC(N)=O)NC(=O)[C@H](C)NC(=O)[C@H](CCCNC(=N)N)NC(=O)[C@H](CCCNC(=N)N)NC(=O)[C@H](CO)NC(=O)[C@H](CC(=O)O)NC(=O)[C@H](CCSC)NC(=O)[C@H](CCC(N)=O)NC(=O)[C@H](CCCCN)NC(=O)[C@H](CO)NC(=O)[C@H](CC(C)C)NC(=O)[C@H](CC(=O)O)NC(=O)[C@H](CO)NC(=O)[C@@H](NC(=O)[C@H](Cc1ccccc1)NC(=O)[C@@H](NC(=O)CNC(=O)[C@H](CCC(N)=O)N(C)C(=O)[C@H](CO)NC(=O)[C@@H](N)Cc1c[nH]cn1)[C@@H](C)O)[C@@H](C)O)C(=O)N[C@@H](CCC(=O)O)C(=O)N[C@@H](Cc1c[nH]c2ccccc12)C(=O)N[C@@H](CC(C)C)C(=O)N[C@@H](CCCCN)C(=O)N[C@@H](CC(N)=O)C(=O)NCC(=O)NCC(=O)N1CCC[C@H]1C(=O)N[C@@H](CO)C(=O)N[C@@H](CO)C(=O)NCC(=O)N[C@@H](C)C(=O)N1CCC[C@H]1C(=O)N1CCC[C@H]1C(=O)N1CCC[C@H]1C(=O)N[C@@H](CO)C(N)=O
EC50 hGLP-1R (cAMP formation) (human GLP-1 receptor): 0.17 nM
EC50 hGlucagonR (cAMP formation) (human glucagon receptor): 0.171 nM

HSQGTFTSDLSKQMDKRRAQDFIEWLKNGGPSSGAPPPS-NH2 [SEQ ID NO: (19)]
EC50 hGLP-1R (cAMP formation) (human GLP-1 receptor): 0.017 nM
EC50 hGlucagonR (cAMP formation) (human glucagon receptor): 0.052 nM

B3: SEQ ID NO: (24) (peptide)
peptide: [Desaminohistidyl]SQGTFTSDLSKQMDSRRAQDFIEWLKNGGPSSGAPPPS-NH2
SMILES: CC[C@H](C)[C@H](NC(=O)[C@H](Cc1ccccc1)NC(=O)[C@H](CC(=O)O)NC(=O)[C@H](CCC(N)=O)NC(=O)[C@H](C)NC(=O)[C@H](CCCNC(=N)N)NC(=O)[C@H](CCCNC(=N)N)NC(=O)[C@H](CO)NC(=O)[C@H](CC(=O)O)NC(=O)[C@H](CCSC)NC(=O)[C@H](CCC(N)=O)NC(=O)[C@H](CCCCN)NC(=O)[C@H](CO)NC(=O)[C@H](CC(C)C)NC(=O)[C@H](CC(=O)O)NC(=O)[C@H](CO)NC(=O)[C@@H](NC(=O)[C@H](Cc1ccccc1)NC(=O)[C@@H](NC(=O)CNC(=O)[C@H](CCC(N)=O)NC(=O)[C@H](CO)NC(=O)CCc1c[nH]cn1)[C@@H](C)O)[C@@H](C)O)C(=O)N[C@@H](CCC(=O)O)C(=O)N[C@@H](Cc1c[nH]c2ccccc12)C(=O)N[C@@H](CC(C)C)C(=O)N[C@@H](CCCCN)C(=O)N[C@@H](CC(N)=O)C(=O)NCC(=O)NCC(=O)N1CCC[C@H]1C(=O)N[C@@H](CO)C(=O)N[C@@H](CO)C(=O)NCC(=O)N[C@@H](C)C(=O)N1CCC[C@H]1C(=O)N1CCC[C@H]1C(=O)N1CCC[C@H]1C(=O)N[C@@H](CO)C(N)=O
EC50 hGLP-1R (cAMP formation) (human GLP-1 receptor): 0.264 nM
EC50 hGlucagonR (cAMP formation) (human glucagon receptor): 0.168 nM

B4: SEQ ID NO: (28) (peptide)
peptide: H[Ser(Me)]QGTFTSDLSKQMDSRRAQDFIEWLKNGGPSSGAPPPS-NH2
modifications: N-terminus assumed
SMILES: CC[C@H](C)[C@H](NC(=O)[C@H](Cc1ccccc1)NC(=O)[C@H](CC(=O)O)NC(=O)[C@H](CCC(N)=O)NC(=O)[C@H](C)NC(=O)[C@H](CCCNC(=N)N)NC(=O)[C@H](CCCNC(=N)N)NC(=O)[C@H](CO)NC(=O)[C@H](CC(=O)O)NC(=O)[C@H](CCSC)NC(=O)[C@H](CCC(N)=O)NC(=O)[C@H](CCCCN)NC(=O)[C@H](CO)NC(=O)[C@H](CC(C)C)NC(=O)[C@H](CC(=O)O)NC(=O)[C@H](CO)NC(=O)[C@@H](NC(=O)[C@H](Cc1ccccc1)NC(=O)[C@@H](NC(=O)CNC(=O)[C@H](CCC(N)=O)NC(=O)[C@H](COC)NC(=O)[C@@H](N)Cc1c[nH]cn1)[C@@H](C)O)[C@@H](C)O)C(=O)N[C@@H](CCC(=O)O)C(=O)N[C@@H](Cc1c[nH]c2ccccc12)C(=O)N[C@@H](CC(C)C)C(=O)N[C@@H](CCCCN)C(=O)N[C@@H](CC(N)=O)C(=O)NCC(=O)NCC(=O)N1CCC[C@H]1C(=O)N[C@@H](CO)C(=O)N[C@@H](CO)C(=O)NCC(=O)N[C@@H](C)C(=O)N1CCC[C@H]1C(=O)N1CCC[C@H]1C(=O)N1CCC[C@H]1C(=O)N[C@@H](CO)C(N)=O
EC50 hGLP-1R (cAMP formation) (human GLP-1 receptor): 0.128 nM
EC50 hGlucagonR (cAMP formation) (human glucagon receptor): 6.48 nM
